Numbering of substitutions follows the chain as printed. Names may count otherwise. Like-named read-outs stand apart in the source and are kept apart here. Each block holds one binder with its values, some of them ahead of it.
Columns and labels:
human CTLA-4 (human) [1] = target: human CTLA-4 (human) (UniProt P16410); test: flow cytometry, CHO cells stably expressing CTLA4
human PD-L1 (human) [2] = target: human PD-L1 (human) (UniProt Q9NZQ7)
Target sequence in this assay (Q9NZQ7 19-290): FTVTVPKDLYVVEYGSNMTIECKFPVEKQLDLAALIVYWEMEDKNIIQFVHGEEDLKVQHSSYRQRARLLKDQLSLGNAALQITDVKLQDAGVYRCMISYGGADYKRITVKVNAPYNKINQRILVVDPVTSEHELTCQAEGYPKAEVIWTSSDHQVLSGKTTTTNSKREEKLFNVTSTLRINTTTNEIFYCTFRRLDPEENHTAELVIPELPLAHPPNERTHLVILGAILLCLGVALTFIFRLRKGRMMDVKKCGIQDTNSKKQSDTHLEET

CD28 (human) [3] = target: CD28 (human) (UniProt P10747)
human PD-L1 (human) [4] = target: human PD-L1 (human) (UniProt Q9NZQ7); test: flow cytometry, CHO cells stably expressing PD-L1
Target sequence in this assay (Q9NZQ7 19-290): as above

CD28 (human) [5] = target: CD28 (human) (UniProt P10747); test: flow cytometry, Jurkat cells (CD28)
human PD-L1 (human) [6] = target: human PD-L1 (human) (UniProt Q9NZQ7); test: flow cytometry, MFI on CHO/PD-L1 over MFI on Jurkat (CD28)
Target sequence in this assay (Q9NZQ7 19-290): as above

human PD-L1 (human) [7] = target: human PD-L1 (human) (UniProt Q9NZQ7); remark: listed apart in the source
Target sequence in this assay (Q9NZQ7 19-290 limits assumed): as the sequence (Q9NZQ7 19-290) above

CD28 (human) [8] = target: CD28 (human) (UniProt P10747); remark: listed apart in the source
human PD-L1 (human) [9] = target: human PD-L1 (human) (UniProt Q9NZQ7); test: flow cytometry, MFI on PD-L1 cells over MFI on CD28 cells
Target sequence in this assay (Q9NZQ7 19-290): as above

human CTLA-4 (human) [10] = target: human CTLA-4 (human) (UniProt P16410); test: flow cytometry, CHO/CTLA4 cells; MFI over CD80 WT IgV-Fc
human PD-L1 (human) [11] = target: human PD-L1 (human) (UniProt Q9NZQ7); remark: listed apart in the source
Target sequence in this assay (Q9NZQ7 19-290): as above

CD28 (human) [12] = target: CD28 (human) (UniProt P10747); remark: listed apart in the source
human PD-L1 (human) [13] = target: human PD-L1 (human) (UniProt Q9NZQ7); test: flow cytometry, CHO/PD-L1 cells; MFI over CD80 WT IgV-Fc
Target sequence in this assay (Q9NZQ7 19-290): as above

CD28 (human) [14] = target: CD28 (human) (UniProt P10747); test: flow cytometry, Jurkat cells (CD28); MFI over CD80 WT IgV-Fc
human PD-L1 (human) [15] = target: human PD-L1 (human) (UniProt Q9NZQ7); test: flow cytometry, HEK293 cells transfected with human PD-L1
CD28 (human) [16] = target: CD28 (human) (UniProt P10747); remark: listed apart in the source
human PD-L1 (human) [17] = target: human PD-L1 (human) (UniProt Q9NZQ7); test: flow cytometry, HEK293 cells transfected with full-length human PD-L1, PE anti-human Fc
human PD-L1 (human) [18] = target: human PD-L1 (human) (UniProt Q9NZQ7); remark: listed apart in the source
CD28 (human) [19] = target: CD28 (human) (UniProt P10747); remark: listed apart in the source
human PD-L1 (human) [20] = target: human PD-L1 (human) (UniProt Q9NZQ7); remark: listed apart in the source
CD28 (human) [21] = target: CD28 (human) (UniProt P10747); remark: listed apart in the source

Chain of human CTLA-4 (human) (P16410 36-223): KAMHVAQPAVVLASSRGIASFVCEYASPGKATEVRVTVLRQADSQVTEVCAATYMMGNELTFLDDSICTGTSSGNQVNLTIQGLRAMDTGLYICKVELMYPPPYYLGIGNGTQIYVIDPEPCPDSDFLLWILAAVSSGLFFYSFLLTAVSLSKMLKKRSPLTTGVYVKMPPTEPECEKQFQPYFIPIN

B1: CD80 IgV-Fc E35D/M47L/V68M/A71G/L85Q/D90G (Fc fusion)
chain: VIHVTKEVKEVATLSCGHNVSVEELAQTRIYWQKDKKMVLTMMSGDLNIWPEYKNRTIFDITNNLSIMILGLRPSDEGTYECVVQKYEKGAFKREHLAEVTLSVKAD
Fold change to WT CD80 (human CTLA-4 (human) [1]): 10.1 fold
MFI at 33.3 nM (human CTLA-4 (human) [1]): 10300 MFI
RLU at 5.0 nM: Fold Increase over WT CD80-IgV-Fc (human PD-L1 (human) [2]): 2.3 fold
RLU at 5.0 nM: Fold Increase over WT CD80-IgV-Fc (CD28 (human) [3]): 2.3 fold
Fold change to WT (human PD-L1 (human) [4]): 202 fold
MFI at 33.3 nM (human PD-L1 (human) [4]): 16800 MFI
Fold change to WT (CD28 (human) [5]): 33.9 fold
MFI at 33.3 nM (CD28 (human) [5]): 1400 MFI
Ratio of PDL1:CD28 (human PD-L1 (human) [6]): 12

B3: variant CD80 IgV-Fc H18Y/E35D/A71G/D90G (Fc fusion)
chain: B1 chain with H18Y, L47M, M68V, Q85L
Fold change to WT CD80 (human CTLA-4 (human) [1]): 19 fold
MFI at 33.3 nM (human CTLA-4 (human) [1]): 25900 MFI
Fold change to WT CD80 (human PD-L1 (human) [4]): 196 fold
MFI at 33.3 nM (human PD-L1 (human) [4]): 8520 MFI
Fold change to WT CD80 (CD28 (human) [5]): 29.8 fold
MFI at 33.3 nM (CD28 (human) [5]): 1310 MFI
IL-2 luciferase reporter, fold increase over WT CD80-IgV-Fc at 5.0 nM (human PD-L1 (human) [7]): 3.81 fold
IL-2 luciferase reporter, fold increase over WT CD80-IgV-Fc at 5.0 nM (CD28 (human) [8]): 3.81 fold
Ratio of PDL1:CD28 (human PD-L1 (human) [9]): 6.5

B4: variant CD80 IgV-Fc (inert) H18V/A26P/E35D/M47L/V68M/A71G (Fc fusion)
chain: B1 chain with H18V, A26P, Q85L, G90D
Fold change to WT CD80 (human CTLA-4 (human) [10]): 11.7 fold
IL2-luciferase reporter, fold increase in RLU over WT CD80-IgV-Fc at 5.0 nM (human PD-L1 (human) [11]): 4.7 fold
IL2-luciferase reporter, fold increase in RLU over WT CD80-IgV-Fc at 5.0 nM (CD28 (human) [12]): 4.7 fold
MFI at 33.3 nM (human CTLA-4 (human) [1]): 16200 MFI
MFI at 33.3 nM (human PD-L1 (human) [4]): 52400 MFI
MFI at 33.3 nM (CD28 (human) [5]): 2450 MFI
Fold change to WT CD80 (human PD-L1 (human) [13]): 318 fold
Fold change to WT CD80 (CD28 (human) [14]): 24 fold

B5: variant CD80 IgV-Fc I30T/L70R (Fc fusion)
chain: B1 chain with I30T, D35E, L47M, M68V, L70R, G71A, Q85L, G90D
MFI at 22.2 nM (human PD-L1 (human) [15]): 5160

B7: variant CD80 IgV-Fc E35G/K54E/A71D/L72P (Fc fusion)
chain: B1 chain with D35G, L47M, K54E, M68V, G71D, L72P, Q85L, G90D
MFI at 22.2 nM (human PD-L1 (human) [17]): 1580 MFI

B9: variant CD80 IgV-Fc V20I/M47V/T57I/V84I (Fc fusion)
chain: B1 chain with V20I, D35E, L47V, T57I, M68V, G71A, V84I, Q85L, G90D
Fold increase in IL2 reporter signal (Jurkat/IL2 reporter assay) (fold vs WT CD80 IgV-Fc) (CD28 (human) [16]): 0.45

B10: variant CD80 IgV-Fc (inert) H18L/A26N/D46E/V68M/A71G/D90G (Fc fusion)
chain: B1 chain with H18L, A26N, D35E, D46E, L47M, Q85L
Fold change to WT CD80 (human CTLA-4 (human) [10]): 12.3 fold
IL2-luciferase reporter, fold increase in RLU over WT CD80-IgV-Fc at 5.0 nM (human PD-L1 (human) [11]): 4.8 fold
IL2-luciferase reporter, fold increase in RLU over WT CD80-IgV-Fc at 5.0 nM (CD28 (human) [12]): 4.8 fold
MFI at 33.3 nM (human CTLA-4 (human) [1]): 17000 MFI
MFI at 33.3 nM (human PD-L1 (human) [4]): 68000 MFI
MFI at 33.3 nM (CD28 (human) [5]): 7250 MFI
Fold change to WT CD80 (human PD-L1 (human) [13]): 412 fold
Fold change to WT CD80 (CD28 (human) [14]): 71.1 fold

Results, then the binder that gave them:

Fold change to WT CD80 (human CTLA-4 (human) [1]): 20.3 fold
MFI at 33.3 nM (human CTLA-4 (human) [1]): 27600 MFI
Fold change to WT CD80 (human PD-L1 (human) [4]): 539 fold
MFI at 33.3 nM (human PD-L1 (human) [4]): 23500 MFI
Fold change to WT CD80 (CD28 (human) [5]): 77.8 fold
MFI at 33.3 nM (CD28 (human) [5]): 3410 MFI
IL-2 luciferase reporter, fold increase over WT CD80-IgV-Fc at 5.0 nM (human PD-L1 (human) [7]): 1.82 fold
IL-2 luciferase reporter, fold increase over WT CD80-IgV-Fc at 5.0 nM (CD28 (human) [8]): 1.82 fold
Ratio of PDL1:CD28 (human PD-L1 (human) [9]): 6.9
B2: variant CD80 IgV-Fc E35D/M47L/V68M/D90G (Fc fusion)
chain: B1 chain with G71A, Q85L

Fold increase in IL2 reporter signal (Jurkat/IL2 reporter assay) (fold vs WT CD80 IgV-Fc) (CD28 (human) [16]): 0.07
B6: variant CD80 IgV-Fc E35D/T57I/L70Q/A71D (Fc fusion)
chain: B1 chain with L47M, T57I, M68V, L70Q, G71D, Q85L, G90D

Fold change to WT CD80 (human CTLA-4 (human) [1]): 18.5 fold
MFI at 33.3 nM (human CTLA-4 (human) [1]): 19300 MFI
Fold change to WT CD80 (human PD-L1 (human) [4]): 43.6 fold
MFI at 33.3 nM (human PD-L1 (human) [4]): 3090 MFI
Fold change to WT CD80 (CD28 (human) [5]): 33.7 fold
MFI at 33.3 nM (CD28 (human) [5]): 1390 MFI
Ratio of PDL1:CD28 (human PD-L1 (human) [6]): 2.2
RLU at 5.0 nM: Fold Increase over WT CD80-IgV-Fc (human PD-L1 (human) [18]): 6.4 fold
RLU at 5.0 nM: Fold Increase over WT CD80-IgV-Fc (CD28 (human) [19]): 6.4 fold
RLU at 5.0 nM: Fold Increase over WT CD80-IgV-Fc (human PD-L1 (human) [20]): 2.5 fold
RLU at 5.0 nM: Fold Increase over WT CD80-IgV-Fc (CD28 (human) [21]): 2.5 fold
B8: CD80 IgV-Fc H18Y/E35D/M47V/V68M/L85M (Fc fusion)
chain: B1 chain with H18Y, L47V, G71A, Q85M, G90D

— patent publication US20220177587A1, “METHODS AND USES OF VARIANT CD80 FUSION PROTEINS AND RELATED CONSTRUCTS” (Alpine Immune Sciences, Inc., priority 2018, published 2022)
